Measured values: US20190071480A1 (Biogen, published 2019)

T1: extracellular domain of activin receptor type IIB (ActRIIBecd), biotinylated (Homo sapiens (Human), UniProt Q13705 27-117, amino-biotinylated with amine-PEG3-Biotin)
T1 construct: immobilised on a streptavidin-coated sensor chip; also called biotinylated ActRIIBecd; extracellular domain of ActRIIB
T1 sequence: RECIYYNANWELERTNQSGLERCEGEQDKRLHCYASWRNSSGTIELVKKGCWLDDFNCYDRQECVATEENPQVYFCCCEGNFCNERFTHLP


Assays:
[1] = molecular target: T1, extracellular domain of activin …; assay: BIAcore SPR as Example 5 (method not restated); SD ±1.67 nM
Experimental: (§1) Biosensor experiments. In one embodiment, experiments were performed on a BIAcore™ T100/T200 instrument (Pharmacia Biosensor AB) in the multichannel mode (serial flow path involving flow cells 1+2+3+4). Flow rate was 10 μl/min; temperature was 25° C.; and data were recorded at 2.5 points/s. All four segments of a sensor chip CMS were coated with streptavidin (Sigma) to a density of 2000 pg/mm² (2000 resonance units) by the aminocoupling procedure. ActRIIBecd (10 mg) and amine-PEG3-Biotin (10 mg, Pierce, Rockford, Ill.) were dissolved in 200 μl H₂O and 10 mg NaCNBH₃ was added to prepare biotinylated ActRIIBecd. The reaction mixture was heated at 70° C. for 24 h, after that a further 10 mg NaCNBH₃ was added and the reaction was heated at 70° C. for another 24 h. After cooling to room temperature, the mixture was desalted with the spin column (3,000 molecular weight cut off (MWCO)). […] Sensograms were recorded during flow of the analyte (the ActRIIBecd-associated polypeptides (i.e., domains) as previously described) first through flow cell 1 (control) then through flow cell 2 (biotinylated ActRIIBecd). […] The sensograms obtained at 1.11, 3.33, 10, 30, and 90 nM analyte were evaluated for equilibrium binding, association rate, and dissociation rate by using the programs supplied with the instrument (BIA evaluation 2.1; Software Handbook. 1995; Pharmacia Biosensor AB).

[2] = molecular target: T1, extracellular domain of activin …; assay: Mean KD column of Table 5; method not restated (BIAcore as Example 5); species also listed in Table 4
Experimental: (§2) Biosensor experiments. In one embodiment, experiments were performed on a BIAcore™ T100/T200 instrument (Pharmacia Biosensor AB) in the multichannel mode (serial flow path involving flow cells 1+2+3+4). Flow rate was 10 μl/min; temperature was 25° C.; and data were recorded at 2.5 points/s. All four segments of a sensor chip CMS were coated with streptavidin (Sigma) to a density of 2000 pg/mm² (2000 resonance units) by the aminocoupling procedure. ActRIIBecd (10 mg) and amine-PEG3-Biotin (10 mg, Pierce, Rockford, Ill.) were dissolved in 200 μl H₂O and 10 mg NaCNBH₃ was added to prepare biotinylated ActRIIBecd. The reaction mixture was heated at 70° C. for 24 h, after that a further 10 mg NaCNBH₃ was added and the reaction was heated at 70° C. for another 24 h. After cooling to room temperature, the mixture was desalted with the spin column (3,000 molecular weight cut off (MWCO)). Biotinylated ActRIIBecd was collected, freeze-dried and used for streptavidin (SA) chip preparation. Amino-biotinylated ActRIIBecd was then immobilized independently on flow cells 2-4 for 10 minutes at a flow rate of 5 μL/min and a concentration of 20 μM in 10 mM sodium acetate, pH 4.0, at a density of 50-250 resonance units (RU). The stored polypeptides were dissolved in glycine buffer (2.5 g of glycine, 0.5 g of sucrose, 370 mg of L-glutamate, 10 mg of sodium chloride, and 10 mg of Tween 80 in 100 mL water, pH 4.5) to prepare 10 mg/mL solution and then diluted with previous glycine buffer to prepare analytes with various concentration. Sensograms were recorded during flow of the analyte (the ActRIIBecd-associated polypeptides (i.e., domains) as previously described) first through flow cell 1 (control) then through flow cell 2 (biotinylated ActRIIBecd). The sensogram obtained for flow cell 1 was subtracted from the sensogram obtained for flow cell 2. The sensograms obtained at 1.11, 3.33, 10, 30, and 90 nM analyte were evaluated for equilibrium binding, association rate, and dissociation rate by using the programs supplied with the instrument (BIA evaluation 2.1; Software Handbook. 1995; Pharmacia Biosensor AB).

[3] = molecular target: T1, extracellular domain of activin …; assay: Mean KD column of Table 5; method not restated (BIAcore as Example 5)
Experimental: as §2

[4] = molecular target: T1, extracellular domain of activin …; assay: BIAcore SPR as Example 5 (method not restated); SD ±2.15 nM
Experimental: as §1

[5] = molecular target: T1, extracellular domain of activin …; assay: BIAcore SPR as Example 5 (method not restated); SD ±1.55 nM
Experimental: as §2, with “The sensogram obtained for flow cell 1 was subtracted from the sensogram obtained for flow cell 2.” left out

Row | Binder | Kd [3] [nM] | also measured
1 | SEQ ID NO: 260, cysteine pairs C15-C15^b, C80-C114^a, C79-C112^a, C44-C48^a (designed binder, disulfides C15-C15 (inter), C80-C114 (intra), C79-C112 (intra), C44-C48 (intra), homodimer by intermolecular disulfide) AQAKHKQRKRLKSSCKRHPLYVDFSDVGWNDWIVAPPGYHAFYCHGECPFPLADHLNSTNHAIVQTLVNSVNSKIPKACCVPTELSAISMLYLDENEKVVLKNYQDMVVEGCGCR |  | Kd [1]: 7.45 nM; Kd [2]: 7.45 nM
2 | SEQ ID NO: 260, cysteine pairs C44-C48^a (designed binder, disulfides C44-C48 (intra)) AQAKHKQRKRLKSSCKRHPLYVDFSDVGWNDWIVAPPGYHAFYCHGECPFPLADHLNSTNHAIVQTLVNSVNSKIPKACCVPTELSAISMLYLDENEKVVLKNYQDMVVEGCGCR | 8.04 | 
3 | SEQ ID NO: 324, cysteine pairs C80-C114^a, C79-C112^a, C44-C48^a (designed binder, disulfides C80-C114 (intra), C79-C112 (intra), C44-C48 (intra)) AQAKHKQRKRLKSSCKRHPLYVDFKDVGWNDHAVAPPGYHAFYCHGECPFPLADHLNSDNHAIVQTKVNSVNSKIPKACCVPTELSAISMLYLDENEKVVLKNYQDMVVEGCGCR |  | Kd [4]: 7.22 nM; Kd [2]: 7.22 nM
4 | SEQ ID NO: 324, cysteine pairs C44-C48^a (designed binder, disulfides C44-C48 (intra)) AQAKHKQRKRLKSSCKRHPLYVDFKDVGWNDHAVAPPGYHAFYCHGECPFPLADHLNSDNHAIVQTKVNSVNSKIPKACCVPTELSAISMLYLDENEKVVLKNYQDMVVEGCGCR | 8.75 | 
5 | SEQ ID NO: 300, cysteine pairs C23-C27^a (designed binder, disulfides C23-C27 (intra)) VDFKDVGWNDHAVAPPGYHAFYCHGECPFPLADHLNSDNHAIVQTKVNSVGQAKRKGYKRLKSSCKRHPLYNSKDPKACCVPTELSAPSPLYLDENEKPVLKNYQDMVVHGCGCR | 8.92 | 
6 | SEQ ID NO: 340, cysteine pairs C15-C15^b, C29-C64^b, C30-C62^b, C88-C92^a (designed binder, disulfides C15-C15 (inter), C29-C64 (inter), C30-C62 (inter), C88-C92 (intra), homodimer by intermolecular disulfide) AQAKHKQRKRLKSSCKRHPLYNSKDPKACCVPTELSAPSPLYLDENEKPVLKNYQDMVVHGCGCRVDFKDVGWNDHAVAPPGYHAFYCHGECPFPLADHLNSDNHAIVQTKVNSV |  | Kd [2]: 6.37 nM; Kd [5]: 6.37 nM

The remaining binders from weak to strong by Kd [3], led by results:

Row | Kd [3] [nM] | Binder | also measured
7 | 6.17 | SEQ ID NO: 260, cysteine pairs C79-C114^a, C80-C112^a, C44-C48^a (designed binder, disulfides C79-C114 (intra), C80-C112 (intra), C44-C48 (intra)) AQAKHKQRKRLKSSCKRHPLYVDFSDVGWNDWIVAPPGYHAFYCHGECPFPLADHLNSTNHAIVQTLVNSVNSKIPKACCVPTELSAISMLYLDENEKVVLKNYQDMVVEGCGCR | 
8 | 6.05 | SEQ ID NO: 260, cysteine pairs C79-C114^b, C80-C112^b, C44-C48^a (designed binder, disulfides C79-C114 (inter), C80-C112 (inter), C44-C48 (intra), homodimer by intermolecular disulfide) AQAKHKQRKRLKSSCKRHPLYVDFSDVGWNDWIVAPPGYHAFYCHGECPFPLADHLNSTNHAIVQTLVNSVNSKIPKACCVPTELSAISMLYLDENEKVVLKNYQDMVVEGCGCR | 
9 | 5.64 | SEQ ID NO: 340, cysteine pairs C88-C92^a (designed binder, disulfides C88-C92 (intra)) AQAKHKQRKRLKSSCKRHPLYNSKDPKACCVPTELSAPSPLYLDENEKPVLKNYQDMVVHGCGCRVDFKDVGWNDHAVAPPGYHAFYCHGECPFPLADHLNSDNHAIVQTKVNSV | 
10 | 4.67 | SEQ ID NO: 316, cysteine pairs C67-C71^a (designed binder, disulfides C67-C71 (intra)) NSKDPKACCVPTELSAPSPLYLDENEKPVLKNYQDMVVHGCGCRVDFKDVGWNDHAVAPPGYHAFYCHGECPFPLADHLNSDNHAIVQTKVNSVGQAKRKGYKRLKSSCKRHPLY | 
11 | 4.04 | SEQ ID NO: 260, cysteine pairs C15-C15^b, C80-C114^b, C79-C112^b, C44-C48^a (designed binder, disulfides C15-C15 (inter), C80-C114 (inter), C79-C112 (inter), C44-C48 (intra), homodimer by intermolecular disulfide) AQAKHKQRKRLKSSCKRHPLYVDFSDVGWNDWIVAPPGYHAFYCHGECPFPLADHLNSTNHAIVQTLVNSVNSKIPKACCVPTELSAISMLYLDENEKVVLKNYQDMVVEGCGCR | 
12 | 4.03 | SEQ ID NO: 260, cysteine pairs C15-C15^b, C79-C114^b, C80-C112^b, C44-C48^a (designed binder, disulfides C15-C15 (inter), C79-C114 (inter), C80-C112 (inter), C44-C48 (intra), homodimer by intermolecular disulfide) AQAKHKQRKRLKSSCKRHPLYVDFSDVGWNDWIVAPPGYHAFYCHGECPFPLADHLNSTNHAIVQTLVNSVNSKIPKACCVPTELSAISMLYLDENEKVVLKNYQDMVVEGCGCR | 
